Our source for the luciferase activity values is patent publication US20220090139A1.

For the assay, the target named is integrin molecules on human cells (human). The experiment in a line: cell-based or functional assay.

B1: RGD-Hoc, P18056 1-376 (protein)
chain: CDCRGDCFCSAMTFTVDITPKTPTGVIDETKQFTATPSGQTGGGTITYAWSVDNVPQDGAEATFSYVLKGPAGQKTIKVVATNTLSEGGPETAEATTTITVKNKTQTTTLAVTPASPAAGVIGTPVQFTAALASQPDGASATYQWYVDDSQVGGETNSTFSYTPTTSGVKRIKCVAQVTATDYDALSVTSNEVSLTVNKKTMNPQVTLTPPSINVQQDASATFTANVTGAPEEAQITYSWKKDSSPVEGSTNVYTVDTSSVGSQTIEVTATVTAADYNPVTVTKTGNVTVTAKVAPEPEGELPYVHPLPHRSSAYIWCGWWVMDEIQKMTEEGKDWKTDDPDSKYYLHRYTLQKMMKDYPEVDVQESRNGYIIHKTALETGIIYTYPKLAAALEHHHHHH
B1 yielded a luciferase activity of 5 fold.
